Laboratory results as given in publication PMC8311663 (Molecular cell, 2021).

Key:
[1] = molecular target: RNAP core (Mtb);sigmaA;CarD;RbpA;WhiB7 (Mycobacterium …, UniProt P9WGZ1;P9WGY9;P9WGY7;P9WGY5;P9WGI1;P9WJG3;P9WHJ5;Q6MX01 …, L7M||||); assay: cryo-EM
[2] = molecular target: RNAP core (Mtb);sigmaA;CarD;RbpA (Mycobacterium …, UniProt P9WGZ1;P9WGY9;P9WGY7;P9WGY5;P9WGI1;P9WJG3;P9WHJ5 …, L7M|||); assay: cryo-EM

B1: whiB7 promoter (-70 to +30) (dsDNA)
DNA 1: CTGTACCGGCAAACGCGCAGGTCAGAAAATCGGTTGTGGTCAGCTGCTGCCACCGGTTAACCTCCAGGTCGCATTCTGCTGCCAGCCTGGAGATGGCATT
DNA 2: AATGCCATCTCCAGGCTGGCAGCAGAATGCGACCTGGAGGTTAACCGGTGGCAGCAGCTGACCACAACCGATTTTCTGACCTGCGCGTTTGCCGGTACAG
[1]
  binding result: binds
[2]
  binding result: binds
